Consider 1 molecule from paper PMC11516053, “Genomic Amplification of TBC1D31 Promotes Hepatocellular Carcinoma Through Reducing the Rab22A‐Mediated Endolysosomal Trafficking and Degradation of EGFR” (Advanced Science, 2024).

This assay has as its target T1, SFB-TBC1D31 (human, UniProt Q96DN5-1 1-1066).
T1 construct: In the SFB pull-down it was left on the streptavidin beads; in the GST pull-down it was eluted with biotin; source: HEK293T, transfected, purified (streptavidin-conjugated beads, eluted with biotin)
T1 sequence (looked up): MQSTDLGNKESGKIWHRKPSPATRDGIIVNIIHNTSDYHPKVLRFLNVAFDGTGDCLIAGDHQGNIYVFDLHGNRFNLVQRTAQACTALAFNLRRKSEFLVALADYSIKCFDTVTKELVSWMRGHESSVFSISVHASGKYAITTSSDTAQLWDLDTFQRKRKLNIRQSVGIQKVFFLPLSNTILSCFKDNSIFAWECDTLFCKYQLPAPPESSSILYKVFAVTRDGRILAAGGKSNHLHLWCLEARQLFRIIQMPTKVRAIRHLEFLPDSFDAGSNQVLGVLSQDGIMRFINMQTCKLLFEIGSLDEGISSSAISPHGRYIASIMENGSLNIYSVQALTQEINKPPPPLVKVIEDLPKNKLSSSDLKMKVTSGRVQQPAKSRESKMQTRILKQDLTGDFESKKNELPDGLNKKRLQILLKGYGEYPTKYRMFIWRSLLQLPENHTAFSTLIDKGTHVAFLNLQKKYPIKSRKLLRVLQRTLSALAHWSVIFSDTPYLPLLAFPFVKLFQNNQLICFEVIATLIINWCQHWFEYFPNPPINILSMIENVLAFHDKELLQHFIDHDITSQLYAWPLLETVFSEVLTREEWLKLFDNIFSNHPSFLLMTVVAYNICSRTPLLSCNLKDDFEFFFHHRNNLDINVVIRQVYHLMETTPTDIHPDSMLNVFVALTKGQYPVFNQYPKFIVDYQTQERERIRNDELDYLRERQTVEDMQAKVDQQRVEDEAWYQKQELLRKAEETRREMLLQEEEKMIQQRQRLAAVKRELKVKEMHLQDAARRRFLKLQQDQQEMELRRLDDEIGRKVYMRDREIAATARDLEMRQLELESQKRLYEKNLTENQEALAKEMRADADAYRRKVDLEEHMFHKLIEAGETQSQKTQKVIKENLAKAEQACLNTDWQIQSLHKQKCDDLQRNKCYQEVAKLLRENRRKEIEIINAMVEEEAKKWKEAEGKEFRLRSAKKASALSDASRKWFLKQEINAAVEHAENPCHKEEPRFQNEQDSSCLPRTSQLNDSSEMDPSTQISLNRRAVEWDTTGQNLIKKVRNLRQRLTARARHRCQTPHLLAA
Briefly: pull-down; GST pull-down in vitro: GST-Rab22A on Glutathione-Sepharose incubated with eluted SFB-TBC1D31 in NETN buffer, 3 h, 4 °C; detection by Flag antibody. The conditions noted are these: both partners purified.

B1: GST-Rab22A (natural protein, human, UniProt Q9UL26 1-194, looked up)
chain: MALRELKVCLLGDTGVGKSSIVWRFVEDSFDPNINPTIGASFMTKTVQYQNELHKFLIWDTAGQERFRALAPMYYRGSAAAIIVYDITKEETFSTLKNWVKELRQHGPPNIVVAIAGNKCDLIDVREVMERDAKDYADSIHAIFVETSAKNAININELFIEISRRIPSTDANLPSGGKGFKLRRQPSEPKRSCC
notes: On glutathione beads in the GST pull-down; eluted with reduced glutathione for the SFB pull-down; source: E. coli BL21, purified (Glutathione-Sepharose)
Consider B1, for which the binding result is “binds”.
